Experimental data taken from patent US20250019448A1 (BIOCOMPLETE, published 2025).
Substitutions are numbered along the chain they refer to.

B1: #47 antibody (IgG form) (antibody, V domains shown)
VH: QVQLVQSGGGVVQPGSSLRLSCEASGFAIGDNALNWVRQAPGKGLEWVGYIRSNSYGGTAEYAASVKGRFTISKDESKNIAYLEMNSLRAEDTAVYYCARRAHYYDGSTYNPSWYFDLWGRGTLVTVSS
VL: EIVLTQSPSFLSASVGDRVTITCRASQDISRRLAWYQQKPGKAPKLLIYGASNLASGVPSRFTGSGSGTEFTLTISSLQPDDFATYYCQQGYSSPRTFGQGTKVDIK
B2: #40 antibody (IgG form) (antibody, V domains shown)
VH: B1 VH with K74R, D106G, L124P
VL: B1 VL with Q38R, P80S
B3: #42 antibody (IgG form) (antibody, V domains shown)
VH: QVRLVQSGAEVKKPGASVKVSCRASGYTFASYDIHWVRQAPGQGPEWMGMINPAGGSTLYAEGFEGRLTMTRDRSMSTAYMELSSLRSEDTAVYYCARTPSQTYELDYWGQGTLVTVSS
VL: ETTLTQSPSSLSASVGDRVTITCRASQGIRNDLAWYQQKPGKAPKLLIYAASTLESGVPPRFSGSGSETDFTLTLIRLQPDDFATYYCLQSFSTPYTFGQGTQLTVL

Each binder was assayed against T1, SMO (smoothened) protein (Homo sapiens (Human), UniProt Q99835 28-787) (assay: flow cytometry on HCT116 cells, 10 µg antibody, Alexa 594 secondary antibody).
T1 construct: Endogenous SMO on HCT116 and SKOV3 cancer cells; also called SMO in HCT116 cells; SMO receptor
Procedure: The binding affinity of the SMO-binding antibodies in HCT116 colon cancer cells was analyzed by flow cytometry. After blocking the HCT116 cells with BSA for 30 minutes, 10 μg of the SMO-binding antibody was bound and incubated for 1 hour at room temperature. One hour later, the cells were washed with PBS, reacted with 2 μL of Alexa 594 secondary antibody, and then incubated for 1 hour at room temperature. One hour later, the cells were washed with PBS to remove non-specific binding, and the binding ability of the SMO-binding antibodies was analyzed by flow cytometry.
B1: binds. B2: binds. B3: binds.
